Measured values: a protein production outcome set (Wang et al. 2014)

Assay: label from the status in PepcDB records
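Also: failed if final PepcDB status was selected cloned or expressed and not failed if soluble or beyond.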

Q: For “MVHMGYKITDKRDLSPIDFFVEVEAPHIAKAWKPGQFVIFILHERGERVPMSVYKAENGRIGMFIRKLGKTSLQLYYEFNVGDEFYSMVGPLGKPIKVKYYGNVVFASDAVCGQAENYATLKAMKEVGNYTISIQTFENAENVYPEEFLAKPVADEHYLTTEDGSVGIKGHYLDIVKELIEKDKVDIIFAGGKLGSLAKLAELTRPYGIPTYATVRQIMVDGTGMCGSCRILYDGEVKFACRDGPVFDAHKVDWEDVLRRANRFLEQERLAKERYLEYLRKKGVI”, which protein production is on record?
A: failed

Q: Which protein production does the source give for “MDKALTNHVIILSFDCLSALDFPILQKLPHFQSLIKKGTVVEKVEPIYPSVTYPSHSTIVTGNYPNKHGVVSNTLLQPGRESPDWHWYRKSIKGTTLYDEARKANLTTAALLWPVTGRANIDYNLPEIFPNRPWQNQVLVSLFSGSPLYQLDLNRRFGHIRNGLSQPELDDFVLASAVHTIQTKKPNIMFVHFTDLDTQRHYHGFESNETIAAIQRHDERLGKIIQALKESDLYEESTIIALGDHSALSENKSIQLNVLFHQRGLISLNKKRKLVDWKAYCQSCDGSAYVYVKDKNDTDTIREVQLLLEELLQNKQNGIEFILHDEAAKDCGADGNCLFMLEAREGYYFTENYTGDFIKEITEKDVTLSKKYTFGTHGYSPTKPNYETIFIAAGKGIKSGVTVPYMRLIDEGPTIARLLGLHLGETDGAIVEDLLQLLEHHHHHH” here?
A: not failed

Q: Which protein production does the source give for “MEHEYQRAVTRVCVQTALLLLQHGAESTVVVQMAQRLGVALGVESVECALTANAVVLTTLSDNHCITTARKNTDKGINMQMVTDVQRIVIAVEHHLYELEIAQRKLDQLKPLKYNRWLVVFMIGLSCAAFAHLSSGDWIICGITIFMLKLLYDMLFAAIPAVGFALVFNVPPKALKYCAILAALGHVTRTLLLHINMPIVFATFFATCVIGFLGVHLSHRYLAHPKAFTVAAIIPMIPGVHAYKAMISMVQIHHFGFSDALFEQMISSFINTSFILGAIVFGLALPGLLFYRQKPVV” here?
A: failed

Q: With “MDTPNKDDSIIRFSVSLQQNLLDELDNRIIKNGYSSRSELVRDMIREKLVEDNWAEDNPNDESKIAVLVVIYDHHQRELNQRMIDIQHASGTHVLCTTHIHMDEHNCLETIILQGNSFEIQRLQLEIGGLRGVKFAKLTKASSFEYNE” as the sequence, how does the protein production read?
A: failed

Q: With “MPEIEIAAGSGDNNDALFGKYELGKLLGCGAFAKVFHARDRRTGQSVAVKILNKKKLLTNPALANNIKREISIMRRLSHPNIVKLHEVMATKSKIFFAMEFVKGGELFNKISKHGRLSEDLSRRYFQQLISAVGYCHARGVYHRDLKPENLLIDENGNLKVSDFGLSALTDQIRPDGLLHTLCGTPAYVAPEILSKKGYEGAKVDVWSCGIVLFVLVAGYLPFNDPNVMNMYKKIYKGEYRFPRWMSPDLKRFVSRLLDINPETRITIDEILKDPWFVRGGFKQIKFHDDEIEDQKVESSLEAVKSLNAFDLISYSSGLDLSGLFAGCSNSSGESERFLSEKSPEMLAEEVEGFAREENLRMKKKKEEEYGFEMEGQNGKFGIGICISRLNDLLVVVEARRRGGDGDCYKEMWNGKLRVQLIRVCDQTSSTNAAI” as the sequence, how does the protein production read?
A: failed

Q: For “EPTFVVAQIKEIIDHPDSDHLHICQAEINDGKTVQIVCGAPNASVGLKTVAALPGAMMPNGSLIFPGKLRGEDSFGMLCSARELALPNAPQVRGIIELSDQVIVGESFDANK”, which protein production is on record?
A: failed

Q: Which protein production does the source give for “MKIAVLGATGRAGSAIVAEARRRGHEVLAVVRDPQKAADRLGATVATLVKEPLVLTEADLDSVDAVVDALSVPWGSGRGYLHLDFATHLVSLLRNSDTLAVFILGSASLAMPGADHPMILDFPESAASQPWYDGALYQYYEYQFLQMNANVNWIGISPSEAFPSGPATSYVAGKDTLLVGEDGQSHITTGNMALAILDQLEHPTAIRDRIVVRDADLEHHHHHH” here?
A: not failed

Q: For “MSDLLFPIISMVLLVLAEAGVLQFTGRQKVDWLDVIFNINSGHMMLWLFRCLEVLCYGLVINHFSLGLFDNAPVILLWLFTILAWDFGFYWLHRWHHEMRPLWAVHVVHHQGEHYNLSLGVRNSWYSSLTSIPFFMLLAMLGVPLQIFLAVSIIHYSWQFFNHNALTPKLGWLEKVLITPSHHRVHHLNQKQYADTNYGGTFLLWDKLFGSYSAGPEYDVGYGVKNSRLSCNPMRESNLPFLRLMGFRSFGKAIEGRYQSSPWAVGAGVILLFMLVLGYIQQYGYGIEFITSEQAVLFVLLAAGSVALGGMSDGQHWGMILWCSVTLSLLYFIVYMCSWSTLLWKGLVGILLAHCLLFVIGVGRKSLRKQYEPV”, which protein production is on record?
A: failed

Q: For “MNQAMDTKQIAPFTLALPEGEALPLVCDSPHSGTFYPADFGAVVAPERLRGGEDTHVDALWEAVPRVGGTLLAATFPRVYIDPNRMLDDIDPAQLEGPWPTPLAPGEKTRLGYGLIWSNVDAATPIYDRKLTVAEVQRRINRYYRPYHAALTEAVEGAYQRFGAVWHLNLHSMPNNAYERLKIQSPRPLADFVLGDRDGTTCEPGLVDLVERELREKGYTVARNDPYKGVQLIAQIGRPAERRNSLQIEIRRPLYMEEGTRERNEGFATLQRDLTLLTLRIAEYVRRGV”, which protein production is on record?
A: not failed

Q: For “MKVEKGDVIRLHYTGKVKETGEIFDTTYEDVAKEARIYNPNGIYGPVPIAVGAGHVLPGLDKRLIGLEVKKKYVIEVPPEEGFGLRDPGKIKIIPLGKFRKSGIIPYPGLEIEVETENGRKMRGRVLTVSGGRVRVDFNHPLAGKTLVYEVEVVEKIEDPIEKIKALIELRLPMIDKDKVIIEISEKDVKLNFKDVDIDPKTLILGEILLESDLKFIGYEKVEFEPTIEELLKPKSAEEQESPNEEQQEESESKAEES”, which protein production is on record?
A: failed

Q: With “MSAFQAFVVNKTETEFTAGVQTISMDDLPEGDVLVRVHYSSVNYKDGLASIPDGKIVKTYPFVPGIDLAGVVVSSQHPRFREGDEVIATGYEIGVTHFGGYSEYARLHGEWLVPLPKGLTLKEAMAIGTAGFTAALSIHRLEEHGLTPERGPVLVTGATGGVGSLAVSMLAKRGYTVEASTGKAAEHDYLRVLGAKEVLAREDVMAERIRPLDKQRWAAAVDPVGGRTLATVLSRMRYGGAVAVSGLTGGAEVPTTVHPFILRGVSLLGIDSVYCPMDLRLRIWERLAGDLKPDLERIAQEISLAELPQALKRILRGELRGRTVVRLA” as the sequence, how does the protein production read?
A: not failed

Q: Which protein production does the source give for “MESSGNPESTTFFYYDLQSQPCENQAWVFATLATTVLYCLVFLLSLVGNSLVLWVLVKYESLESLTNIFILNLCLSDLVFACLLPVWISPYHWGWVLGDFLCKLLNMIFSISLYSSIFFLTIMTIHRYLSVVSPLSTLRVPTLRCRVLVTMAVWVASILSSILDTIFHKVLSSGCDYSELTWYLTSVYQHNLFFLLSLGIILFCYVEILRTLFRSRSKRRHCTVKLIFAIVVAYFLSWGPYNFTLFLQTLFRTQIIRSCEAKQQLEYALLICRNLAFSHCCFNPVLYVFVGVKFRTHLKHVLRQFWFCRLQAPSPASIPHSPGAFAYEGASFY” here?
A: failed

Q: With “MGHHHHHHSHMGTKRPAMLDNEADGNKTMIELSDNENPWTIFLETVDPELAASGATLPKFDKDHDVMLFLKMYDPKTR” as the sequence, how does the protein production read?
A: failed

Q: For “MPLKSLKNRLNQHFDLSPRYGSVKKIMPNIVYADGFNPSVGDVVKIEKSDGSECVGMVVVAEKEQFGFTPFNFIEGARAGDKVLFLKEGLNFPVGRNLLGRVLNPLGQVIDNKGALDYERLAPVITTPIAPLKRGLIDEIFSVGVKSIDGLLTCGKGQKLGIFAGSGVGKSTLMGMITRGCLAPIKVIALIGERGREIPEFIEKNLKGDLSSCVLVVATSDDSPLMRKYGAFCAMSVAEYFKNQGLDVLFIMDSVTRFAMAQREIGLALGEPPTSKGYPPSALSLLPQLMERAGKEENKGSITAFFSVLVEGDDLSDPIADQTRSILDGHIVLSRELTDYGIYPPINILNSASRVAKDIISESQNLCARKFRRLYALLKENEMLIRIGSYQMGNDKELDEAIKKKALMEQFLAQDENALQPFETSFQQLEEILR”, which protein production is on record?
A: failed

Q: For “MVTPIAVVGPTASGKSALGIALAHKLDGEVVNVDSMQLYKGMDIGTAKLTVEEREGIAHHQLDVWDVTETASVARFQSDAVADVEDIMSRGKTPILVGGSMLYVQSLVDDWQFPPTDSAVRARFEARLADIGVEALHAELTQLDPEAAAVIESNDPRRTVRALEVIELTGQPFQASQPPKDAPPRWGTRIIGLKTTPEWLNPRIEQRTARMFEQGFVAEVEHLVQQGLIADSTAGRAIGYSQVLAAMAGEMTWEDAFERTVTGTRRYVRRQRSWFNRDHRVSWVDASGDPTAQALEILGLQLEHHHHHH”, which protein production is on record?
A: not failed

Q: Which protein production does the source give for “MASSEGLASVDPWSFRQNFNIDSWLLSDSFSHDSDILAKALHRSISTSTESSPLSPSSFFDSSTAAVDFSPPQTLSNVSFGSDPEIPAASALGLGKRKRGPGVSGGKQTKRRSRVSNKKSQTTFITADAANFRQMVQQVTGAKFLGSSNSIFAPIVKPEPHRLASRLPPSCGNLDRSSAVPTLDTSSFLSNHHQENIITDLGAPTGSFHHQSSAGTTTANVGGGSSAVELDSYPSFPTLESWKVM” here?
A: failed

Q: Which protein production does the source give for “MDDIDSLILIGVLIALTAFFVASEFAIVRVRRSRIDQLITEGNKRAILARRVITDLDEYLSASQLGITLTSIGLGVLGEPAFERLLHPLFEPLGLPDSVSHAVSFAVAYGLITFLHVVVGELAPKTVAIQKAEQLTLLIAGPLRLFYLLLFPFIWILNGSARLLCGMFGLKPASEHDGSHSEEELRMLLSESLKNGEINPSEYKYVNKIFEFDNRIAKEIMIPRKEMAAVSTEMTMAEMLEVMLKEKYTRWPVTDGDKDSVLGLVNTKHLFSDLLFMTEEERMKMTIHPYVRPVIEVIETIPVHDLLIKMQRERIHMAILSDEYGGTSGLVTTEDILEEIVGEIRDEFDEDEQPLIQKLGDGHYVMDGKVRIDQVNSLLGASIQEDVDTIGGLILKENIDIEAGESIRIGSYTIKVLKMDGRLIKQIDIKEEAGNTTGITAHHKLPLPEPVMLNSATLSEK” here?
A: failed

Q: Which protein production does the source give for “MKVLESAPSRYDRGIRIITLGKLDEAYDRLTSRIKPGQRVLDVGCGTGALTLRAALRGARVKAIDINPQMLEIARKRVEEAGVTGMVELCEMGVAELNTEASEGYDAVMAGLCFSELTEDELSYALREIKRVLKPGALLLIADEAVPESPVKRVLSWLIRAPLAVIAYLLIQTTTRAVKNLPEKLGEEGFLIESVRRSFMEDFVEIVARKPGR” here?
A: failed

Q: For “MSSAQVNGISKRLIVESPNVKLEDGVLESRFTYRKNHFEHRADGLHVTPKEHDYSFKTVLKPRKTGLLLVGLGGNNGSTAVGSIFANQYAMTWRTKEGHSQANYFGSVTQTATVHLGYDSATQNQIFVPFKDIVPILSPNDLIISGWDISDSNLYEAMGRAKVFEPELQEKLRPFMEPIVPLPSIYYPDFIASNQGDRANNVIPGDNKLEHLEHIRADIRKFKQEHELECVIVLWTANTERYTDVRQGLNATADEIMESIRVNEDEVSPSNIFAVASILEGAHYINGSPQNTLVPGLIELAERHKVFVGGDDFKSGQTKFKSAFVDFLVSSGMKPESIVSYNHLGNNDGKNLSEARQFRSKEISKSSVVDDMVKSNQILFPDAKNPDYCVVIKYVPYVADSKRAMDEYICSIFMGGKQTFVVHNTCEDSLLASPLIYDLAILTELASRVSYKVDDEYKPFHSVLSILSLLLKAPVVPPGTPISNAFMRQFSTLTKLVTALAGFPSDTDMQIEFFTQLPAAKSKSQ”, which protein production is on record?
A: not failed
